The source of these data is the Immune Epitope Database (IEDB).

For orientation: Kd means the free concentration of one partner at which half of the binding sites on the other are occupied at equilibrium, for simple one-to-one binding.

Holding throughout (test): IEDB peptide-MHC binding, purified MHC/competitive/radioactivity; filed as Kd, often an IC50 or EC50 that approximates it; ≥ and ≤ were set here for values at or beyond the usual limits of such assays
In test [1] the target is HLA-A*02:03.
For test [2], the target named is HLA-A*02:06.
In test [3] the target is HLA-A*02:02. The settings on record: source organism: Vaccinia virus WR.
Test [4] concerns the target HLA-A*33:01.
For test [5], the target named is HLA-A*11:01.
The target in test [6] is HLA-A*31:01.
The target of test [7] is HLA-A*68:01.
The target of test [8] is HLA-A*03:01.
The mark [9] stands for this setting: source organism: Vaccinia virus WR.
The mark [10] stands for this setting: source organism: Dengue virus 1 Brazil/97-11/1997.
Where [11] appears, read: source organism: Lymphocytic choriomeningitis virus (strain Armstrong).
Setting [12] is: source organism: SARS coronavirus Tor2.
The mark [13] stands for this setting: source organism: Mammarenavirus tacaribeense.
The mark [14] stands for this setting: source organism: Dengue virus 2 Jamaica/1409/1983.
The mark [15] stands for this setting: source organism: Mammarenavirus lassaense.
[16] abbreviates: source organism: Mammarenavirus mopeiaense.

Regarding PLSINVSGV, the values for the Kd in test [1] (setting [9]), in test [2] (setting [9]) and in test [3] were 45.3 nM, 17900 nM and 1120 nM, respectively.

Regarding YVSSSYKDI, the results for the Kd in test [1] (setting [9]), in test [2] (setting [9]) and in test [3] were 1200 nM, 16600 nM and 5040 nM, respectively.

On to GLMILLTGGA, for which, in test [1] (source organism: Dengue virus 3 Martinique/1243/1999), the Kd turned out to be 23.1 nM.

For STGESSILR, the Kd in test [4] (setting [9]) stood at 4730 nM; in test [5] (setting [9]), 928 nM; in test [6] (setting [9]) it was 1340 nM; in test [7] (setting [9]) it was 196 nM; in test [8] (setting [9]), 310 nM.

As for MIKMFSQIDR, the Kd in test [4] (setting [9]) stood at 45.3 nM; in test [5] (setting [9]), 3790 nM; in test [6] (setting [9]), 2.43 nM; in test [7] (setting [9]) it was 1.6 nM; in test [8] (setting [9]), 2250 nM.

As for FQPHQLWTT, the Kd in test [2] (setting [10]) is 6.01 nM.

Consider SSMTIREFPR, for which the Kd in test [4] (setting [9]) was 17.3 nM; in test [5] (setting [9]) it was 5.47 nM; in test [6] (setting [9]) it was 0.996 nM; in test [7] (setting [9]) it was 0.479 nM; in test [8] (setting [9]), 9970 nM.

Regarding ETFKIDAVRY, the Kd in test [4] (setting [9]) is no less than 70000 nM; in test [5] (setting [9]), no less than 25100 nM; in test [6] (setting [9]) it was no less than 41300 nM; in test [7] (setting [9]) it was 46.9 nM; in test [8] (setting [9]), no less than 70100 nM.

With TLIAMDLGEL, the Kd in test [1] (setting [10]) amounted to 12.6 nM.

Consider VCLALTNSMK, for which the Kd in test [4] (setting [11]) was no less than 66800 nM; in test [5] (setting [11]), 634 nM; in test [6] (setting [11]), 4560 nM; in test [7] (setting [11]), 19300 nM; in test [8] (setting [11]) it was 42.4 nM.

On to VSVSDFRDY, for which the Kd in test [4] (setting [9]) was 11900 nM; in test [5] (setting [9]), 10400 nM; in test [6] (setting [9]) it was no less than 77900 nM; in test [7] (setting [9]), no less than 77700 nM; in test [8] (setting [9]), no less than 78000 nM.

For MQNCLLRLK, the Kd in test [4] (setting [12]) was determined as 12100 nM; in test [5] (setting [12]) it was 17.7 nM; in test [6] (setting [12]), 13.1 nM; in test [7] (setting [12]), 1370 nM; in test [8] (setting [12]) it was 98.3 nM.

Turning to VCPLGLLLK, the Kd in test [4] (setting [13]) is no less than 77700 nM; in test [5] (setting [13]), 2420 nM; in test [6] (setting [13]) it was no less than 26500 nM; in test [7] (setting [13]) it was no less than 77600 nM; in test [8] (setting [13]), 5830 nM.

As to KVSCTILAAV, the values for the Kd in test [1] (setting [14]) and in test [2] (setting [14]) were 54.4 nM and 12.7 nM, respectively.

Take RQLFKPLTK: the Kd in test [4] (setting [12]) was no less than 77700 nM; in test [5] (setting [12]), 662 nM; in test [6] (setting [12]), 2380 nM; in test [7] (setting [12]) it was no less than 77700 nM; in test [8] (setting [12]), 92.2 nM.

Take LALTDVEKR: the Kd in test [4] (setting [9]) is no less than 73300 nM; in test [5] (setting [9]), 12300 nM; in test [6] (setting [9]), 209 nM; in test [7] (setting [9]), 162 nM; in test [8] (setting [9]), no less than 78000 nM.

With VISKIYTLIY, the Kd was determined as 2240 nM in test [4] (setting [9]); 113 nM in test [5] (setting [9]); 990 nM in test [6] (setting [9]); 1790 nM in test [7] (setting [9]); 101 nM in test [8] (setting [9]).

Take PVNQFTGYLK: the Kd in test [4] (setting [12]) is no less than 61900 nM; in test [5] (setting [12]) it was 764 nM; in test [6] (setting [12]) it was no less than 70000 nM; in test [7] (setting [12]), 2260 nM; in test [8] (setting [12]), 5330 nM.

With AFLLRHYYNK, the Kd in test [4] (setting [9]) stood at 1910 nM; in test [5] (setting [9]), 225 nM; in test [6] (setting [9]), 23.8 nM; in test [7] (setting [9]), 5340 nM; in test [8] (setting [9]) it was 749 nM.

Turning to RQILDNAAK, the Kd in test [4] (setting [9]) was no less than 77700 nM; in test [5] (setting [9]) it was 144 nM; in test [6] (setting [9]) it was 1110 nM; in test [7] (setting [9]) it was no less than 35300 nM; in test [8] (setting [9]), 117 nM.

As to DSMDVLAEK, the Kd in test [4] (setting [9]) came to 1.81 nM; in test [5] (setting [9]), 1.73 nM; in test [6] (setting [9]) it was 988 nM; in test [7] (setting [9]), 0.122 nM; in test [8] (setting [9]), 404 nM.

With TCQGSDDIK, the Kd is 2840 nM in test [4] (setting [15]); 16500 nM in test [5] (setting [15]); 5090 nM in test [6] (setting [15]); 7390 nM in test [7] (setting [15]); no less than 78000 nM in test [8] (setting [15]).

For the sequence KCFGNTAIAK, the Kd in test [4] (setting [16]) came to 3380 nM; in test [5] (setting [16]), 7370 nM; in test [6] (setting [16]), 528 nM; in test [7] (setting [16]), 7870 nM; in test [8] (setting [16]) it was 195 nM.

In the case of RFQPFQQFGR, the Kd in test [4] (setting [12]) was 1300 nM; in test [5] (setting [12]), no less than 35100 nM; in test [6] (setting [12]), 1.06 nM; in test [7] (setting [12]) it was 540 nM; in test [8] (setting [12]), 13500 nM.

On to VVVQIDPEY, for which the Kd was no less than 77700 nM in test [4] (setting [9]); 2340 nM in test [5] (setting [9]); no less than 77900 nM in test [6] (setting [9]); 110 nM in test [7] (setting [9]); 141 nM in test [8] (setting [9]).
